According to patent US20200095336A1:

B1: human-derived molecularly modified insecticidal protein CCL-CCL_scFv (scFv)
scFv: MATDIQMTQSPSSLSASVGDRVTITCRASQSISSYLNWYQQKPGKAPKLLIYAASRLQSGVPSRFSGSGSGTDFTLTISSLQPEDFATYYCQQTSHPPLTFGQGTKVEIKRSSGGGGSGGGGSGGGGSTDIQMTQSPSSLSASVGDRVTITCRASQSISSYLNWYQQKPGKAPKLLIYAASRLQSGVPSRFSGSGSGTDFTLTISSLQPEDFATYYCQQTSHPPLTFGQGTKVEIKR

Key:
[1] = target: midgut brush-border membrane vesicle protein BBMV of Plutella xylostella; experiment: competitive ELISA on coated BBMV; Cry1Ac varied against CCL-CCL_scFv (competitor, detected by its His tag)
[2] = target: midgut brush-border membrane vesicle protein BBMV of Plutella xylostella; experiment: competitive ELISA on coated BBMV; Cry1Ab varied against CCL-CCL_scFv (competitor, detected by its His tag)
[3] = target: midgut brush-border membrane vesicle protein BBMV of Plutella xylostella; experiment: BLI (Octet), BBMV coated on APS biosensor, analyte at 4, 2, 1 and 0.5 µM
[4] = target: midgut brush-border membrane vesicle protein BBMV of Plutella xylostella; experiment: ELISA on coated BBMV, anti-His-tag HRP

Row | Molecule | IC50 [1] [µg/mL] | inhibition rate [1] [%] | IC50 [2] [µg/mL] | Kd [3] [nM] | OD450 [4] [OD450]
1 | Bt toxin Cry1Ac (ligand) | 1.7 | 90 |  |  | 
2 | Bt toxin Cry1Ab (ligand) |  |  | 3.02 | 127 | 
3 | B1 |  |  |  | 41.6 | > 3
